Source: PMC4357705, “Human Rap1 modulates TRF2 attraction to telomeric DNA”
Each block holds one molecule with its values, some of them ahead of it.

What was measured:
[1] = biological target: Rap1, full-length, N-terminal His6-tag, labelled with Alexa Fluor 594 (human) (UniProt Q9NYB0); experiment: fluorescence polarisation; fluorescence anisotropy; TRF2 titrated into 100 nM Rap1 labelled with Alexa Fluor 594; 50 mM NaCl, 50 mM sodium phosphate pH 7.0 with 1 mM DTT; concentration as TRF2 dimer
[2] = biological target: Rap1, full-length, N-terminal His6-tag, labelled with Alexa Fluor 594 (human) (UniProt Q9NYB0); experiment: fluorescence polarisation; fluorescence anisotropy; TRF2 titrated into 100 nM Rap1 labelled with Alexa Fluor 594; PBST (Phosphate Buffered Saline with Tween 20, ~140 mM NaCl); concentration as TRF2 dimer
[3] = biological target: Rap1 without His-tag, labelled with Alexa Fluor 488 (human) (UniProt Q9NYB0); experiment: fluorescence polarisation; fluorescence anisotropy; TRF2noHis titrated into 100 nM Rap1noHis labelled with Alexa Fluor 488; 50 mM NaCl, 50 mM sodium phosphate pH 7.0, 25 C; concentration as TRF2 dimer
Rap1 [4] = biological target: T1, Rap1 (human, UniProt Q9NYB0 1-399); experiment: SPR; PBST; FA: 50 mM NaCl, 50 mM sodium phosphate pH 7.0, 25 °C, 7.5 nM DNA; EMSA: same buffer, 15 min on ice, 5% (or 4%) PAGE in 0.25x TBE at 4 °C; SPR: PBST; settings: protein: recombinant; tags: N-terminal His6; label: 5' biotin on S6; blunt
T1 sequence: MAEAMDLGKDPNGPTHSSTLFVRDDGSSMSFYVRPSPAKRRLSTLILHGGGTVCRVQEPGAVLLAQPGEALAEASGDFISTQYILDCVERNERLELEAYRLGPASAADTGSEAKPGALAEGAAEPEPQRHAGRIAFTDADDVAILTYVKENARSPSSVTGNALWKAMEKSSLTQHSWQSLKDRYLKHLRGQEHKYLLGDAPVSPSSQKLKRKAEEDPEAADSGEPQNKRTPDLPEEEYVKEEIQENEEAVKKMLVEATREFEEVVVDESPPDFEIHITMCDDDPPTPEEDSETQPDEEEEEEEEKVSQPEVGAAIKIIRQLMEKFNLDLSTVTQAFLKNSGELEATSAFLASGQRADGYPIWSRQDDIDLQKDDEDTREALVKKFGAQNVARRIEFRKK

Rap1 [5] = biological target: T1, Rap1; experiment: fluorescence anisotropy; FA: 50 mM NaCl, 50 mM sodium phosphate pH 7.0, 25 °C, 7.5 nM DNA; EMSA: same buffer, 15 min on ice, 5% (or 4%) PAGE in 0.25x TBE at 4 °C; SPR: PBST; settings: protein: recombinant; tags: N-terminal His6; label: Alexa Fluor 488 (FA); 5' biotin on S6 in SPR; 3' overhang 6 nt
Rap1 [6] = biological target: T1, Rap1; experiment: EMSA; up to Rap1:DNA 40:1; FA: 50 mM NaCl, 50 mM sodium phosphate pH 7.0, 25 °C, 7.5 nM DNA; EMSA: same buffer, 15 min on ice, 5% (or 4%) PAGE in 0.25x TBE at 4 °C; SPR: PBST; settings: protein: recombinant; tags: N-terminal His6; label: Alexa Fluor 488 at 3' end of one strand; blunt
[7] = biological target: Telomeric Repeat binding Factor 2 (TRF2), full-length, N-terminal His6-tag (human); experiment: SPR; TRF2 immobilised by amine coupling on ProteOn GLC chip; Rap1 as analyte (methods: 80-5 nM; key of Figure S4A: 160-10 nM); PBST; 240 s injection at 100 ul/min, 1200 s dissociation; equilibrium responses fitted with a simple bimolecular equilibrium model

Kd [1]: 44 nM
Kd [2]: 64 nM
Molecule: Telomeric Repeat binding Factor 2 (TRF2), full-length, N-terminal His6-tag (natural protein)

Kd [3]: 49 nM
Molecule: TRF2 without His-tag (natural protein)

B1: SR2 (dsDNA)
DNA 1: CTAACTTAGGGTTAGGGTTAG
DNA 2: CTAACCCTAACCCTAAGTTAG
binding result (Rap1 [4]): no binding

B2: Overhang_SR2 (mixed)
DNA 1: CTAACTTAGGGTTAGGGTTAGGGTTAG
DNA 2: CTAACCCTAACCCTAAGTTAG
binding result (Rap1 [5]): no binding

B3: R5 (dsDNA)
DNA 1: GTTAGGGTTAGGGTTAGGGTTAGGGTTAGGGTTAG
DNA 2: CTAACCCTAACCCTAACCCTAACCCTAACCCTAAC
modifications: 3'-C6 aminoalkyl linker on one strand
binding result (Rap1 [6]): no binding

Kd [7]: 44 nM
B4: Repressor activator protein 1 (Rap1), full-length, N-terminal His6-tag (natural protein)
chain: T1 sequence

B5: R2 (dsDNA)
DNA 1: GTTAGGGTTAGGGTTAG
DNA 2: CTAACCCTAACCCTAAC
modifications: 3'-C6 aminoalkyl linker on one strand
binding result (Rap1 [6]): no binding
